Data: patent publication US20250027068

Target: pooled human IgG (human IgG1,2,3 and 4)

Protein | Enzyme Activity Endpoint Assay: Fab′2 | Enzyme Activity Endpoint Assay: Fc | Enzyme Activity Endpoint Assay: IgG | Enzyme Activity Endpoint Assay: scIgG
PRT-102 (protein) MANQEIRYSEVTPYHVTSVWTKGVTPPAKFTQGEDVFHAPYVANQGWYDITKTFNGKDDLLCGAATAGNMLHWWFDQNKEKIEAYLKKHPDKQKIMFGDQELLDVRKVINTKGDQTNSELFNYFRDKAFPGLSARRIGVMPDLVLDMFINGYYLNVYKTQTTDVNRTYQEKDRRGGIFDAVFTRGDQSKLLTSRHDFKEKNLKEISDLIKQELTEGKALGLSHTYANVRINHVINLWGADFDSNGNLKAIYVTDSDSNASIGMKKYFVGVNSAGKVAISAKEIKEDNIGAQVLGLFTLSTGQDSWNQTN | 607 ng/µL | 160 ng/µL | 0 ng/µL | 0 ng/µL
PRT-103 (protein) MANQEIRYSEVTPYHVTSVWTKGVTPPAKFTQGEDVFHAPYVANQGWYDITKTFNGKDDLLCGAATAGNMLHWWFDQNKEKIEAYLKKHPDKQKIMFGDQELLDVRKVINTKGSQTNSELFNYFRDKAFPGLSARRIGVMPDLVLDMFINGYYLNVYKTQTTDVNRTYQEKDRRGGIFDAVFTRGDQSKLLTSRHDFKEKNLKEISDLIKKELTEGKALGLSHTYANVRINHVINLWGADFDSNGNLKAIYVTDSDSNASIGMKKYFVGVNSAGKVAISAKEIKEDNIGAQVLGLFTLSTGQDSWNQTN | 544 ng/µL | 158 ng/µL | 0 ng/µL | 0 ng/µL
PRT-104 (protein) MANQEIRYSEVTPYHVTSVWTKGVTPPAKFTQGEDVFHAPYVANQGWYDITKTFNGKDDLLCGAATAGNMLHWWFDQNKEKIEAYLKKHPDKQKIMFGDQELLDVRKVINTKGDQTNSELFNYFRDKAFPGLSARRIGVMPDLVLDMFINGYYLNVTKTQTTDVNRTYQEKDRRGGIFDAVFTRGDQSKLLTSRHDFKEKNLKEISDLIKKELTEGKALGLSHTYANVRINHVINLWGADFDSNGNLKAIYVTDSDSNASIGMKKYFVGVNSAGKVAISAKEIKEDNIGAQVLGLFTLSTGQDSWNQTN | 259 ng/µL | 130 ng/µL | 0 ng/µL | 0 ng/µL
PRT-105 (protein) MANQEIRYSEVTPYHVTSVWTKGVTPPAKFTQGEDVFHAPYVANQGWYDITKTFNGKDDLLCGAATAGNMLHWWFDQNKEEIEAYLKKHPDKQKIMFGDQELLDVRKVINTKGDQTNSELFNYFRDKAFPGLSARRIGVMPDLVLDMFINGYYLNVYKTQTTDVNRTYQEKDRRGGIFDAVFTRGDQSKLLTSRHDFKEKNLKEISDLIKKELTEGKALGLSHTYANVRINHVINLWGADFDSNGNLKAIYVTDSDSNASIGMKKYFVGVNSAGKVAISAKEIKEDNIGAQVLGLFTLSTGQDSWNQTN | 663 ng/µL | 192 ng/µL | 0 ng/µL | 13 ng/µL
PRT-106 (protein) MRNATEAYAKEVPHQITSVWTKGVTPLTPEQFRYNNEDVIHAPYLAHQGWYDITKTFNGKDNLLCGAATAGNMLHWWFDQNKTEIEAYLSKHPEKQKIIFNNQELFDLKAAIDTKDSQTNSQLFNYFRDKAFPNLSARQLGVMPDLVLDMFINGYYLNVFKTQSTDVNRPYQDKDKRGGIFDAVFTRGDQTTLLTARHDLKNKGLNDISTLIKQELTEGRALALSHTYANVSISHVINLWGADFNAEGNLEAIYVTDSDANASIGMKKYFVGINASGKVAISAKKIEGENIGAQVLGLFTLSSGKDIWQKLS | 739 ng/µL | 202 ng/µL | 0 ng/µL | 0 ng/µL
